Measurements taken from PMC9537594.

Assays:
[1] = molecular target: Cross-linked His-CAhex: disulfide-stabilized hexamer of 6-His-CA(A14C/E45C/W184A/M185A) (HIV-1); assay: SPR; Reichert 4-SPR; cross-linked His-CAhex immobilised on an NTA chip via the C-terminal His-tag; peptides 3.9 μM to 2 mM; 0.01 M HEPES pH 7.4, 0.15 M NaCl, 0.05% v/v Surfactant P20; simple kinetic model
[2] = molecular target: cross-linked His-CAhex, 6-His-CA(A14C/E45C/W184A/M185A) (HIV-1); assay: SPR; Reichert 4-SPR; cross-linked His-CAhex immobilised on an NTA chip via the C-terminal His-tag; peptides 3.9 µM to 2 mM; 0.01 M HEPES pH 7.4, 0.15 M NaCl, 0.05% Surfactant P20; Scrubber 2.0, simple kinetic model

Binder | Kd [1] [mM] | Kd [2] [mM]
GPLLPGQSFGGPSVS [SEC24C_(228-242) 15-mer FG peptide] | 1.07 | 
NSPSGVFTFGANSST [NUP1531409-1423 peptide] |  | 0.131
GPLLPGQSFGGPSVS [SEC24C228-242 peptide] |  | 1.07
